Read-outs that look alike come from different tables or passages of the source.
Columns and labels:
Details in all cases: modification not given
[1] = target: LgTrip 3546 (with His tag; SEQ ID NO: 51); experiment: luminescence complementation
[2] = target: LgTrip 3546 (with His tag; SEQ ID NO: 51); experiment: luminescence complementation; remark: listed apart in the source
[3] = target: LgTrip 3546 (with His tag; SEQ ID NO: 51); experiment: luminescence complementation; SmTrip9 Kd
[4] = target: LgTrip 3546 (with His tag; SEQ ID NO: 51); experiment: luminescence complementation; SmTrip9 Kd; remark: listed apart in the source
[5] = target: LgTrip 3546 (with His tag; SEQ ID NO: 51); experiment: luminescence complementation; remark: listed apart in the source
[6] = target: LgTrip 3546 (with His tag; SEQ ID NO: 51); experiment: luminescence complementation; SmTrip9 Kd; remark: listed apart in the source
[7] = target: LgTrip 3546 (with His tag; SEQ ID NO: 51); experiment: luminescence complementation; remark: listed apart in the source
[8] = target: LgTrip 3546 (with His tag; SEQ ID NO: 51); experiment: luminescence complementation; SmTrip9 Kd; remark: listed apart in the source
[9] = target: LgTrip 3546 (with His tag; SEQ ID NO: 51); experiment: luminescence complementation; remark: listed apart in the source
[10] = target: LgTrip 3546 (with His tag; SEQ ID NO: 51); experiment: luminescence complementation; SmTrip9 Kd; remark: listed apart in the source
[11] = target: LgTrip 3546 (with His tag; SEQ ID NO: 51); experiment: luminescence complementation; SmTrip9 Kd; remark: listed apart in the source
[12] = target: LgTrip 3546 (with His tag; SEQ ID NO: 51)
[13] = target: LgTrip 3546 (with His tag; SEQ ID NO: 51); remark: listed apart in the source

Chain of LgTrip 3546 (with His tag; SEQ ID NO: 51) (chain, as listed by the source): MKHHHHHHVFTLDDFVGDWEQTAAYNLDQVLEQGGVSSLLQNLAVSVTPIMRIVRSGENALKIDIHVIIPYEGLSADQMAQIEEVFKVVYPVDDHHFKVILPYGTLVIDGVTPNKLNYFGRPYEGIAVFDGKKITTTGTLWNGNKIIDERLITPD

B1: 620 (peptide)
chain: GKMLFRVTINSYK
[1]
  Kd: 190 nM
[2]
  Kd: 120 nM

B2: 759 (peptide)
chain: DKLLFTVTIEKYK
[3]
  Kd: 330 nM
[4]
  Kd: 560 nM

B3: 668 (peptide)
chain: GKMLFRVTIGKWK
[5]
  Kd: 60 nM
[1]
  Kd: 130 nM

B4: 745 (peptide)
chain: DKMLFTVTIQKWK
[4]
  Kd: 200 nM
[1]
  Kd: 160 nM
[6]
  Kd: 300 nM

B5: 671 (peptide)
chain: GKMLFRVTIQKWK
[7]
  Kd: 20 nM
[1]
  Kd: 60 nM

B6: 758 (peptide)
chain: DKLLFTVTIEKWK
[8]
  Kd: 520 nM
[4]
  Kd: 190 nM

B7: 622 (peptide)
chain: GKMLFRVTIESWK
[9]
  Kd: 2880 nM
[1]
  Kd: 7240 nM

B8: 757 (peptide)
chain: DKLLFTVTIQKYK
[4]
  Kd: 190 nM
[10]
  Kd: 360 nM

B9: 756 (peptide)
chain: DKLLFTVTIQKWK
[11]
  Kd: 480 nM
[4]
  Kd: 950 nM

B10: 302 (peptide)
chain: SSWKRMLFRVTINSVS
[12]
  Kd: 520 nM

B11: 428 (peptide)
chain: SSKRGSMLFRVTIWSV
[13]
  Kd: 40 nM

Source: US20200270586A1
